The target in this data set is DmCas7-11;DmTPR-CHAT full-length (Desulfonema magnum;Desulfonema magnum, UniProt A0A975GRY4;A0A975BRS1 1-1785;1-822, |). The experiment in a line: cryo-EM; Craspase complex with full TPR-CHAT, 3.2 A; PDB 7ZOL or 7ZOQ (assignment not stated); EMSA: 32.5 mM HEPES-NaOH pH 7.5, 100 mM NaCl, 2.5 mM DTT, 1 U/ul RNase inhibitor, 50 nM RNA, 30 min on ice; no Mg2+ listed. The conditions noted are these: protein: recombinant;recombinant; tags: 6xHis (N-terminal);Twin-Strep (N-terminal); copies: 1;1; single strand.
Sequence of DmCas7-11;DmTPR-CHAT full-length (chain, as listed by the source |, chain 1 of 2): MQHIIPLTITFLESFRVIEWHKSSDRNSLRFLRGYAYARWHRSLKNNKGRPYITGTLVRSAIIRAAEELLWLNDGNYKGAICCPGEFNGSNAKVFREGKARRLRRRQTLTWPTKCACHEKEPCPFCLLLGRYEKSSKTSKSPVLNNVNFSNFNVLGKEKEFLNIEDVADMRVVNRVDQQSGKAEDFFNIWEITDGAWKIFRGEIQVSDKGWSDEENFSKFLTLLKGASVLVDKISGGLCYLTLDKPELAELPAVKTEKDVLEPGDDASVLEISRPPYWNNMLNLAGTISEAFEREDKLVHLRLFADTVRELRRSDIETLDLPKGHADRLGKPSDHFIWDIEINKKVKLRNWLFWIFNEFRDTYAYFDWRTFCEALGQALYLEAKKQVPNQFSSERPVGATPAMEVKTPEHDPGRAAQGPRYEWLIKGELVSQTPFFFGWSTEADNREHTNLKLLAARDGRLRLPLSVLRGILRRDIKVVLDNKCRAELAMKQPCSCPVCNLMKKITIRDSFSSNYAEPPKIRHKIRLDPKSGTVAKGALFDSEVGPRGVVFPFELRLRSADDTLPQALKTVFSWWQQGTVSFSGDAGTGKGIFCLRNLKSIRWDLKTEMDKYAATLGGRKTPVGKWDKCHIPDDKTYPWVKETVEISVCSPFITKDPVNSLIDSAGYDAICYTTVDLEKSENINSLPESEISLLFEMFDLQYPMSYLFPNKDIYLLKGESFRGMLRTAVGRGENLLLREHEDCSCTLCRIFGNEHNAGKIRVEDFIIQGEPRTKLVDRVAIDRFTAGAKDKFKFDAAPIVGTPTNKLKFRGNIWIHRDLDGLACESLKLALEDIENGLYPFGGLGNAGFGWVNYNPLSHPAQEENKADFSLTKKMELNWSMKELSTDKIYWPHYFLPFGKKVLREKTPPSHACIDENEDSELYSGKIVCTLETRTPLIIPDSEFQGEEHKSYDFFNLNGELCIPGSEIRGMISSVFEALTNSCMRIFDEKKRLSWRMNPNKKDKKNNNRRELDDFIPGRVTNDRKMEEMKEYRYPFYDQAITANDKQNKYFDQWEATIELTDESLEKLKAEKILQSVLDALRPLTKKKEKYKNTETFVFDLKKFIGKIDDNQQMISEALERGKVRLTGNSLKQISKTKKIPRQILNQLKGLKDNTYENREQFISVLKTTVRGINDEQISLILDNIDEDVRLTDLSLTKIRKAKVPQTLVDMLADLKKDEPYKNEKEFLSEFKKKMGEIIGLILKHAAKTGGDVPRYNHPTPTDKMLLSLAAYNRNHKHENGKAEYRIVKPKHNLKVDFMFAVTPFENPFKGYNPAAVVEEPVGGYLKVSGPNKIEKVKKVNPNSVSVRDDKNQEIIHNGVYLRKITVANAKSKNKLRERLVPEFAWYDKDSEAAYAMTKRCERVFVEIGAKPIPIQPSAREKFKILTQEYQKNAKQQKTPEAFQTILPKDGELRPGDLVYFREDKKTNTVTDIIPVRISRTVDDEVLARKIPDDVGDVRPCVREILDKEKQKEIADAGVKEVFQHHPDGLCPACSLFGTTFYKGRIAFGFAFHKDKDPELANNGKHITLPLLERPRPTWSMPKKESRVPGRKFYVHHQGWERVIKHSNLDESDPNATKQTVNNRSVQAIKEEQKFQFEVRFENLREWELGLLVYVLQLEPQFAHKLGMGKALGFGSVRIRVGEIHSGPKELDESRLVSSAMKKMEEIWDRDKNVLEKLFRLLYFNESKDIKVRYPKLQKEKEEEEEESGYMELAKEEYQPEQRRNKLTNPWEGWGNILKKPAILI
Sequence of DmCas7-11;DmTPR-CHAT full-length (chain, as listed by the source |, chain 2 of 2): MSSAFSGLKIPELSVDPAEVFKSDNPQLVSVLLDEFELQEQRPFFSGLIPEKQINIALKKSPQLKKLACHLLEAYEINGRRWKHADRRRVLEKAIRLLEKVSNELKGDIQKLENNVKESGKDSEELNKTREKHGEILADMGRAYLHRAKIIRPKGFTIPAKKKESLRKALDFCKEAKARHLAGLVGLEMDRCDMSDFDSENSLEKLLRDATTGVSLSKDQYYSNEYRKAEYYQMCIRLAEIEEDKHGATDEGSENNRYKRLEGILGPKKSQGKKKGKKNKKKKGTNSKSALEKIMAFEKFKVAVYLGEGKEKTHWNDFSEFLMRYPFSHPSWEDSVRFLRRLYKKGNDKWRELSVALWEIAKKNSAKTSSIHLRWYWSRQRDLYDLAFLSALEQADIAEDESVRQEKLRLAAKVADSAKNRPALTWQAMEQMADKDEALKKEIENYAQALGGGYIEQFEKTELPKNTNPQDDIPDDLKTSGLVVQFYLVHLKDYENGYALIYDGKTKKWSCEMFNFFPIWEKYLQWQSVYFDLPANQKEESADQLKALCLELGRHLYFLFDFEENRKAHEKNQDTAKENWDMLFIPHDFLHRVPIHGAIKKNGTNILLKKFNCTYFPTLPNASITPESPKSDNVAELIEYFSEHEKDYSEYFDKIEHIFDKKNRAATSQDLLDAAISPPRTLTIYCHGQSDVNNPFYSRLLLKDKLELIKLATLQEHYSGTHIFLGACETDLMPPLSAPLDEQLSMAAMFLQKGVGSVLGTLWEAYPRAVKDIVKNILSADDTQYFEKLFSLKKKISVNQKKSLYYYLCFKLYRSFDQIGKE

B1: crRNA (13+ nt 5' handle, spacer C15-G40 modelled) (ssRNA)
RNA: UUAUGUGAUGGAACCUCUCCGGAUAAUUCUAUCUCUUCUG
For the molecule B1, the binding result is recorded as “binds”.

The record behind these values is article PMC9935389, “Structural insights into the regulation of Cas7-11 by TPR-CHAT”.
